Data taken from PMC11367332, “Neutralizing IL-38 activates γδ T cell-dependent antitumor immunity and sensitizes for chemotherapy” (Journal for Immunotherapy of Cancer, 2024).

What was measured:
CD8+ T cells = experiment: CD8+ T-cell proliferation assay (co-culture with cDC1); format: cell-based, mouse; settings: 5 µM added daily
Method: CD8+ T cells from murine spleen and cDC1 from PyMT tumors treated in vivo with anti-IL-38 antibodies were isolated by FACS-sorting. CD8+ T cells and cDC1 were co-cultured at a ratio of 1:40 in the T-cell medium. Cells were pre-incubated with either 100 nM anti-IL-38 or 100 nM IgG isotype control, activated with mouse T-cell activator CD3/CD28 Dynabeads (Thermo Fisher Scientific) and supplemented with 10 ng/mL rm IL-2 (PrepoTech) at days 0, 2 and 5 and 50 μM β-mercaptoethanol daily. For the Notch signaling blockade, 5 µM γ-secretase inhibitor DAPT (Abcam) was added daily. For CD8+ T cell culture, 100 ng/mL rm IL-38 (AdipoGen) was added daily. Supernatants were collected for cytokine determination at days 3, 5 and 7 and cell proliferation was analyzed by flow cytometry.
To measure the cytokines in PyMT tumors and cell culture supernatants, Cytometric Bead Array Flex Sets (BD Biosciences) were used for murine IL-17A and IFN-γ. The samples were acquired via FACS and analyzed with FlowJo Software V.10 (Tree Star).

PyMT tumors [1] = experiment: Therapeutic model of chemoresistance in PyMT mice (doxorubicin with or without anti-IL-38); format: in vivo, mouse
Text: The C57BL/6N IL-38 knockout (KO) strain was previously described.[10] For the polyoma virus middle T oncoprotein (PyMT) model, IL-38 KO mice were crossed with the PyMT mammary carcinoma strain, previously bred into a C57BL/6 background.[19] Only female PyMT mice were used. Tumor development in PyMT wildtype (WT) versus IL-38 KO mice was monitored once a week for up to 8 weeks, starting at 12 weeks using electronic calipers. For IL-38 neutralization, PyMT WT mice were intraperitoneally (i.p.) injected with 100 µg of either anti-IL-38 antibody (e04, in-house generated) or IgG1 (Human IgG1, Bio X Cell) isotype control. […] The treatment started at week 13 and tumor growth was monitored once a week. Group sizes were determined based on prior experience with the model. […]
(§1) For preparing single-cell suspensions, PyMT tumors were processed with the Tumor Dissociation Kit (Miltenyi Biotec) and gentleMACS Dissociator (Miltenyi Biotec) according to standard protocols. […] Samples were acquired with an FACSymphony A5 or FACSymphony S6 flow cytometer (BD Bioscience) and the data was analyzed in FlowJo software V.10 (Tree Star). […] For the gating strategy, fluorescence minus one controls were applied. […]

[2] = molecular target: T1, mIL-38-Avi (murine IL-38 with Avi tag) (Mus musculus, UniProt Q8R459); experiment: BLI; Octet RED96; mIL-38-Avi immobilised on streptavidin biosensors at 2 µg/mL; Fab from 250 to 7.8 nM in 1:1 dilution steps; 150 mM NaCl, 50 mM Tris-HCl pH 7.5, 0.1% BSA, 0.02% Tween 20; 1:1 analyte model with global fit; settings: both partners purified
T1 construct: interleukin-38 (IL-38, IL-1 family member 10), mouse; PDB 8Q3J holds mIL-38 and may show the limits of the construct; also called mouse IL-38

[3] = molecular target: T1, mIL-38-Avi (murine IL-38 with Avi tag); experiment: BLI; Octet RED96; mIL-38-Avi immobilised on streptavidin biosensors at 2 µg/mL; IgG from 250 to 7.8 nM in 1:1 dilution steps; 150 mM NaCl, 50 mM Tris-HCl pH 7.5, 0.1% BSA, 0.02% Tween 20; 1:2 bivalent model; settings: both partners purified
murine IL-38 = molecular target: T2, murine IL-38 (Mus musculus, UniProt Q8R459); experiment: Neutralization of IL-38 effect on IL-17 production by splenic γδ T cells; format: cell-based; settings: γδ T cells on anti-CD3 plates, IL-1 and IL-23 + IL-38 and Fab, supernatants after 5 days
T2 construct: purchased AdipoGen AG-40B-0101-C010
T2 sequence (Q8R459 1-152): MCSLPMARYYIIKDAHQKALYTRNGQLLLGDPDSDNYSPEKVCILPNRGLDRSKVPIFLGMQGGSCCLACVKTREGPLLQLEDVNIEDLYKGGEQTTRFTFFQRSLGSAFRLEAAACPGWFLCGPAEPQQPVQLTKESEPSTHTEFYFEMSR
Method: Figure 2 IL-38 neutralization slows down tumor development and increases T-cell infiltrates into tumors. (A) Kinetic analysis and dissociation constants (Kd) of Fabs e04 and h06 selected by phage display binding to mouse IL-38 determined by biolayer interferometry. (B) Mouse splenic γδ T cells were seeded on anti-CD3 coated plates and treated with IL-1 and IL-23 + IL-38 and Fab fragments putatively recognizing […] murine IL-38. IL-17 levels in supernatants were analyzed after 5 days. Unrelated Fab fragments c05 and d09 were used as negative controls. Data are from four independent experiments. (C) SDS-PAGE analysis of purified e04 IgG. (D) Binding profile of e04 IgG and mouse IL-38 determined by biolayer interferometry. (E) Crystal structure of Fab E04 binding to recombinant IL-38. […] (F) Tumor growth was monitored when the first tumor reached 0.6 cm in diameter. […] (I) The overall immune cell profile (n=6), (J) γδ T-cell subsets (n=5–6) and (K) intracellularly produced cytokines (n=10–11) were determined by flow cytometry after 5 weeks of treatment. (L) Representative images of PyMT tumors stained for CD8, CD4 and CD3 and (M) quantification of indicated cells is shown. […] Data are shown as means±SEM. *p<0.05, **p<0.01, ***p<0.001; p values were calculated using unpaired multiple t-tests with FDR correction. […]

PyMT tumors [4] = experiment: IL-38 neutralization in PyMT mammary carcinoma model; format: in vivo, mouse
Text: The C57BL/6N IL-38 knockout (KO) strain was previously described.[10] For the polyoma virus middle T oncoprotein (PyMT) model, IL-38 KO mice were crossed with the PyMT mammary carcinoma strain, previously bred into a C57BL/6 background.[19] Only female PyMT mice were used. Tumor development in PyMT wildtype (WT) versus IL-38 KO mice was monitored once a week for up to 8 weeks, starting at 12 weeks using electronic calipers. For IL-38 neutralization, PyMT WT mice were intraperitoneally (i.p.) injected with 100 µg of either anti-IL-38 antibody (e04, in-house generated) or IgG1 (Human IgG1, Bio X Cell) isotype control. For CD8+ T cell depletion, PyMT WT mice were injected with 100 µg of anti-IL-38 antibody (e04) in combination with either 250 µg of anti-CD8 antibody (anti-mouse CD8α, Bio X Cell) or IgG2b (rat IgG2b, Bio X Cell) isotype control. In both experiments, the treatment started once the first tumor reached a size of 0.6 cm in diameter. The antibodies were injected once a week for 5 weeks. In the therapeutic model of chemoresistance, PyMT WT mice were i.p. injected with 5 mg/kg of doxorubicin (Teva Pharma) in combination with either IgG1 isotype control or anti-IL-38 antibody. The mice were treated with five once-weekly cycles of chemotherapy once the first tumor reached a size of 1.0 cm in diameter. For γδ T-cell receptor (TCR) neutralization, mice were separated into four groups, in which PyMT WT and IL-38 KO mice were treated with either anti-γδ TCR antibody (UC7-13D5, Bio X Cell) or IgG (polyclonal Armenian hamster, Bio X Cell) isotype control once a week for 5 weeks. Mice were i.p. injected once with 500 µg of antibodies, followed by 4 weekly injections of 200 µg.[20] The treatment started at week 13 and tumor growth was monitored once a week. Group sizes were determined based on prior experience with the model. No exclusion criteria were defined and no animals were excluded. Due to the nature of the model (treatment start for every single animal depends on individual parameters), simple randomization (no confounder minimization) was done and the experimenters were not blinded. Data analysis was done in a blinded manner. Animals were housed in groups at the Zentrale Forschungseinrichtung (animal testing facility), Faculty of Medicine, Goethe University Frankfurt. […]
as §1

## C[C@H](NC(=O)Cc1cc(F)cc(F)c1)C(=O)N[C@H](C(=O)OC(C)(C)C)c1ccccc1 [DAPT]
CD8+ T cells; cytometric bead array days 3, 5 and 7
  cDC1-induced IFN-γ production by CD8+ T cells: strongly inhibited
CD8+ T cells; flow cytometry at day 7
  cDC1-induced proliferation of CD8+ T cells: strongly inhibited

## COc1cccc2c1C(=O)c1c(O)c3c(c(O)c1C2=O)C[C@@](O)(C(=O)CO)C[C@@H]3O[C@H]1C[C@H](N)[C@H](O)[C@H](C)O1 [doxorubicin]
PyMT tumors [1]; Il1f10 mRNA by quantitative PCR, PyMT WT mice
  IL-38 expression in the tumor: increased IL-38 expression in the tumor
PyMT tumors [1]; late-stage setting, start at tumor size 1 cm, doxorubicin 5 mg/kg i.p., five once-weekly cycles, antibody 100 µg/mouse
  Tumor progression: did not

B1: Fab e04 (Fab, V domains shown)
VH: EVQLVESGGGLVQPGGSLRLSCAASGFSFSSSSIHWVRQAPGKGLEWVASISPYYSYTSYADSVKGRFTISADTSKNTAYLQMNSLRAEDTAVYYCARTVRGSKKPYFSGWAMDYWGQGTLVTVSS
VL: DIQMTQSPSSLSASVGDRVTITCRASQSYYSYVAWYQQKPGKAPKLLIYSASSLYSGVPSRFSGSRSGTDFTLTISSLQPEDFATYYCQQVFAPITFGQGTKVEIK
notes: heavy chain (Fd) of Fab e04 from a synthetic Fab-phage library; light chain of Fab e04 from a synthetic Fab-phage library; Selected by phage display against murine IL-38; the library is described in the online supplemental methods; also called anti-IL-38 Fab fragment; source: E. coli BL21, purified (HiTrap Protein G)
[2]
  Kd: 6.7 nM

B2: e04 IgG (Fab e04 converted into full-length IgG1) (antibody, V domains shown)
VH: B1 VH
VL: B1 VL
notes: variable part as the heavy chain of m2 (PDB 8Q3J), converted into full-length IgG1 format; as the light chain of m2 (PDB 8Q3J); IgG1; also called IgG e04; anti-IL-38 antibody (e04); source: Expi293F, transfected, purified from supernatant (HiTrap Protein G)
[3]
  Kd: 0.68 nM

B3: Fab e04: Fab fragment selected by phage display from a synthetic Fab-phage library, binds murine IL-38 (antibody, V domains shown)
VH: B1 VH
VL: B1 VL
Murine IL-38
  Effect on IL-38 inhibition of IL-17 production by γδ T cells: neutralized the inhibitory effect of IL-38 on IL-17 production by γδ T cells

B4: IgG e04: Fab e04 converted into full-length IgG1 format; in-house generated IL-38 neutralizing antibody (antibody, V domains shown)
VH: B1 VH
VL: B1 VL
PyMT tumors [4]; CD8+ T cells, macrophages, tumor cells, flow cytometry
  Expression of the PD-1/PD-L1 immune checkpoint in tumors: did not observe an impact
PyMT tumors [4]; PyMT WT mice, 100 µg i.p. once a week for 5 weeks, start at first tumor 0.6 cm, vs IgG1 isotype
  Tumor development: marked delay in tumor development
PyMT tumors [4]; flow cytometry after 5 weeks of treatment, vs IgG1 isotype
  Abundance of CD8+ T cells and γδ T cells in tumors: increased abundance of CD8+ T cells and γδ T cells in the tumors
PyMT tumors [4]; intracellular cytokine staining, flow cytometry, after 5 weeks of treatment
  Cytokine-producing γδ T cells in tumors: IFN-γ rather than IL-17-producing γδ T cells were increased
